Reference: paper PMC7993378, “Inhibition of bacterial and human zinc-metalloproteases by bisphosphonate- and catechol-containing compounds” (Journal of Enzyme Inhibition and Medicinal Chemistry, 2021)

System: COc1ccc2c(CC(=O)N[C@@H](CCCNC(=N)N)C(=O)N3CCC[C@H]3C(=O)N3CCC[C@H]3C(=O)NCC(=O)N[C@@H](Cc3ccccc3)C(=O)N[C@@H](CO)C(=O)N[C@@H](C)C(=O)N[C@@H](Cc3ccccc3)C(=O)N[C@@H](CCCCNc3ccc([N+](=O)[O-])cc3[N+](=O)[O-])C(=O)O)cc(=O)oc2c1
Experiment: Km determination of McaRPPGFSAFK(Dnp)-OH with TLN
Assay type: biochemical, Bacillus thermoproteolyticus
Details: other: 2% DMSO; pH 7.5
Method: The estimated Km values for ALN and PLN must be regarded as uncertain since the highest substrate concentration used was 10 µM due to quenching. The obtained Km values are very similar to those previously obtained for theses enzymes without DMSO[57] or with a DMSO concentration of 5%[58]. Previously it was reported that TLN is inactivated in most organic cosolvents, but can tolerate up to 10% DMSO to enhance substrate solubility. For TLN, the Km value was also determined with a DMSO concentration of 2%.
Km values were determined for McaPLGL(Dpa)AR-NH2 with APMA-activated recombinant MMP-9 (rMMP-9(A)), trypsin-activated MMP-9 from THP-1 cells (MMP-9(T)) and MMP-14, and for McaRPPGFSAFK(Dnp)-OH with ALN, PLN and TLN. Substrate concentrations used were 1–10 µM in a total volume of 100 µL of 0.1 M Hepes pH 7.5 containing 10 mM CaCl2, 0.005% Brij-35 and 1.0% DMSO. […] Initial rate experiments were performed as described above for the determination of enzyme activity of MMP-9 during activation and the same excitation and emission wavelengths were used for both substrates.

## TLN (Bacillus thermoproteolyticus)
  Km: 7 ± 1 µM
